Data from a protein production outcome set (Wang et al. 2014).

Experiment: label from the status in PepcDB records

Sequence: MADISLDELIRKRGAAAKGRLNARPGVGGVRSRVGIQQGLLSQSTRTATFQQRFDARQKIGLSDARLKLGVKDAREKLLQKDARFRIKGKVQDAREMLNSRKQQTTVPQKPRQVADAREKISLKRSSPAAFINPPIGTVTPALKLTKTIQNLYDLDEDDDGIASVPTKQMKFAASGGFLHHMAGLSSSKLSMSKALPLTKVVQNDAYTAPALPSSIRTKALPVLTSPGT
- protein production: not failed

Sequence: MDKPVVRDAALLIFRAVLGVIFVAHGWEKLFISGVTKTTGQFSAWGVPQPKLSVWITSISELLGGAFLVVGLLTTFVAGALALLIAAAIYFVHLSSGFFTVENGIEFPLLIIVSLLVIVVFGSGRASVDGVLTRG
- protein production: failed

Sequence: MRFPVLSRFLHPDPRIRRELVELLYTSLPQVMAIGVTSVTGALALTLLGDDPGYAVITFFILVTATARVFSLMRYKARAARFTDADVVRWERLYGAGATAFGLALGALSFRALQLGDAPGAWIAFGLSMSYCVGMVSRAAIRPWIILTAAAALLMPTMIAGLMRPELAYKIGAGMLVLFWLTLREASKHLSAAFTERLEAKHRLARQATHDFLTDLPNRAGFLQALSDMAGNFTVVAIDLDGFKPINDRHGHHTGDDLLRQVAERLTTCVGADGVAARFGGDEFMLLKPVTSAEQGRDEALALARKAVFDLSMPYLLADLPVCIGASAGIAISHAALAGGNTAQLLERVDRALYVAKRAGGGCAWADGDIEPSCCPRSTPLAKDSAAA
- protein production: failed

Sequence: MNAQLQYQIEQFFYRKSELCDAQDWDAYLQLFAVDSEFHLPQWDSEHVYTRDPKREMSLIYYANRSGLEDRVFRLRTGKAASTIPMPRTLHMVSNLRIAEGDNGLLRVRLNWHTLFYRLATSEEFYGHATYDLKPQGDSWLIQRKHVLLLNDTINSVLDFYHL
- protein production: failed

Sequence: MSIEVPISIPKTLIIIPAYNEEEAIADTLTRLLELKQHFTALSICVINDGSQDKTAQIVKNFPVHLINLPYNLGIGSAVQTGYKYAYENGYDIAIQFDADGQHNPDDLYKIIQPIAEGQCDMVLGSRFTEKTAYKGSISRRIGIFYFTALLKVLTKQTFMDPTSGYRAINREVITIFAHNYPKDYPEPEVLIHLKKKKLRINEISVNMQERQGGQSSITPLKSAYYMIKVSLAILMQKIVKGLEHHHHHH
- protein production: failed

Sequence: MASLSQLSSHLNYTCGAENSTGASQARPHAYYALSYCALILAIVFGNGLLCMAVLKERALQTTTNYLVVSLAVADLLVATLVMPWVVYLEVTGGVWNFSICCDVFVTLDVMMCTASILNLCAISIDRYTAVVMPVHYQHGTGQSSCRRVALMITAVWVLAFAVSCPLLFGFNTTGNPTVCSISNPDFVIYSSVVSFYLPFGVTVLVYARIYVVLKQRRRKRILTRQNSQCNSVRPGFPQQTLSPDPAHLELKRYYSICQDTALGGPGFQERGGELKREEKTRNSLSPTIAPKLSLEVRKLSNGRLSTSLKLGPLQPRGVPLREKKATQMVAIVLGTFIVCWLPFFLTHVLNTHCQTCHVSPELYSATTWLGYVNSALNPVIYTTFNIEFRKAFLKILSC
- protein production: not failed

Sequence: MKLHTSDLLIICAYLIAMIVIGLILKKRAAQNMDSYFLGGKSLPFYMLGLSNASGMFDITGTMLMVYWAFAYGFKSLWIPWLWPVFNQIFLMVYLSVWLRRSNVLTGAEWIKTRFGKGKGATLSHTIVVVFALLSVLGFLSYGFIGIGKFMEIFIPWEVISPYIPFTVSPEYVPHVYGIFFTAIATFYVMLGGMLSIVWTDVVQFLIMTVAGIVIVVIGMQMVAPDMIHSFVPAGWDSPFFGWTLDIDWSSRMSLLTERMANEPYSLIGIFVMMALLKGIFMSMAGPAPNYDMQKILSCKSPKEAAMMSGSVSVVLLIPRYLMIMGFALLAIYFFKEDGGLTQMEVTRTDFETILPHLITRYVPAGFAGLLLAGLLAAFMSTFASTVNAAPAYIVNDIYLKYINPKASVKTQIRSSYVISVAVVVVSTVIGFFLKDINEIFQWIVGALFGGYIAANVLKWHWWRFNGEGYFWGMTAGVVAAIVMKFTVPDAWVLYFFPVLFGVSLIGCIIGTYSAPATDEETLINFYVNVRPWGCWKPIQEKAIARYPHIQANKNFKRDAFNVAIGIIWQCTLTIIPMYLVVREQLGLWSSIALLLITTLILRKTWYKPLCKEEARYNEEMKQIR
- protein production: failed

Sequence: MDLKESQEFSGLIAGKPRISYQNDYGGHRTNLHLLDSRLWIILSGQAAILGFCGNTVLAEDESMKSKSGDNMDESGNTGLEKIEDGSVVSNIHTSKWRVFTDSGRDYFFQGKLEPAERLFGSAIQEAKEGFGEKDPHVASACNNLAELYRVKKEFDKAEPLYLEAVSILEEFYGPDDVRVGATLHNLGQLYLVQRKLEEARACYEIRRCVFAVISYVKNYDELES
- protein production: failed

Sequence: MKHEAIGHDTIAKFLLTSGSTGNPKAVINTQRMICANQVMIREAMAFLKDEPPVIVDWLPWNHTFGGNHNIGLTLFNGGSMYIDDGKPTPAGIASTIRNLREIAPTVYFNVPKGYESLLPVLREDQQLRKLFFSRLHAMFFSGASLAAHVWNGLDEVAVAETGARVPMLTGLGATETAPFFMSVTPQTSRSGHVGLEHHHHHH
- protein production: failed

Sequence: MKRKWIDALWVMGVLLMAGFCLSACNRELDVQTVFPFEVSTMPVPKQIKQGETVEVRCSLVSEGDFSGTCYTMRFFQTEGKGVLRIGRGVALKPNDCYPVGKGDFRLYYTSQSKERQSLEIVFEDNHGQSQTIVLDFNHKESDEDKEREAGYRT
- protein production: failed

Sequence: MRNPHSNGNLRKLEADGGGEATEENGFVNGVILGLDGGATSTVCVCVPFFSFGERFPDPLPILGRAVAGCTNRNSVGETAARDSLEQVISEALVQSGFDKSDVRGVCLGVSGVNHPSDQEKIENWIRDMFPSHVKVYVQNDAIVALASGTMGKLHGCVLIAGTGCIAYGFDEDGKEARASGGGPILGDWGSGYGIAAQALTAVIRAHDGRGPQTMLTSTILKALGLSSPDELIGWTYADPSWARIAALVPQVVSCAEAGDEISDKILVDAAEDLALSVKAVVQRLGLCGKDGTASFPVVMVGGVLNANQKWDIGKEVSKRINRYFPGAQTIIPKVEPAVGAALLAMNFLSS
- protein production: failed

Sequence: MKDLIIVGAGGFGREVAWLVEDINNNNREWNLLGFIDENEQNHGNELNGYKVLGGFDYLNNKKNIYYVCAIGNAKVRKEIVEKKCSKYNIKPANLIHPSVIMSKKYNKMGEGCIICASNIITVNVTLGDHIIVNLDCTIGHDVVINDYVTIYPSVNVSGNCNIGECVELGTGTQVIQGNNIGDRTIVGAGSVVIRNIEGDKVAVGVPTKVIK
- protein production: failed

Sequence: MIPPGAQTPCPAGTRGDEATQLRRFVASVPNRISIGAARGAAPLSALLGLLLLGGAWTLRDHPGPGHEAAALCLLAAAALLMCLACLQRNARSAPFLVLGQGRLRARSLSAPLDLLEVADLRLEDGVWFSAIVLELHGKALPAPSTRPLDPFAARAVSECRDGPRVRLLSPGWRLNGRNLSLLEAAEVIDLYLDIARAQARLRQLGEIPPSASSSLPTPRIFP
- protein production: failed

Sequence: MSKNIGLNAIEMSYLRQSLSLSAAQVGQLTNHSEAEVLAWENAETQAPELAQKKLLDIDDIIEMQVLNTTDGIEALFKKEPKRHLAFVVYPTQAIYTQYNPEFLSSLPLTELYNTAAWRIKKECKLVLEVDVSLINLNVEAYKAYREQNGLSESRESRAKWAATQL
- protein production: not failed

Sequence: MGSGPTGLRGTGRQLLALERDVLVLSVAMFAFSLGFQMTSRYIPRYMSVLGAGAVAIGLFGAFGNLISALYPYPGGAVSDRIGSRTALTLFGLLSTAGFLIWLFADAFGTVVVPPVGTEREVFGREVVIGWLEPAVVPVGIFLGLVFAQAWKSFGLGATFAIVKQSVSPDQLATGFASTETFRRTAFLLGPLLAAGILAVFTFEVGFRIVLAVAAAFGLVATLAQHFLYDASEDTLGKSFAGVSAVVDDLRSMPSELRPLLVADTLVRFGNGMVYVFFIIVVTEFLEVGVSLPVVGRLSPDAYFGVLLAIEMLVALLIMLPVSRLSRRVGLKPVVAVGFAVYAIFPAVLIYAPDNAAVLALLFAVSGLRFAGLPAHKALIVGPAESGSGGRVTGSYYLVRNVVVIPSAAIGGAIYAVSPETAFLTATAIGLAGLVVFLAFGREFEAAVAG
- protein production: failed

Sequence: MRMNMKKISLSLLTLGVLSGLSINASALPADFPVMPAATAPVSQYVTAVNADSSITFRLFAPTAKQVSVFTGSTPDSIVSHAMTKDEAGVWSFKTPVQAPNLYEYFFSVDGFRTIDTGTAFTKPQRQVNTSLILVPGSILDVRQIPHGELRTLTYHSNALKSERQMYVWTPPGYSESSKPLPVLYFYHGFGDTGASAVVQGRIPQMMDNLLAEKKIEPMLVVIPDTETDVPGIIPEEYPPQERRKVFYPRNALAADRELIHDIIPAIGKRFNVRQDANGRALAGLSQGGYQALVSGMSHLDHFGWLATFSGVTTETVPNMAVAAQLERPEQINQQLKNLTVVIGETDNITGKDIAGLKTMLEQKNIRFDYTHYPNLGHEMDVWRPAYSEFVQKLFK
- protein production: failed

Sequence: MEISEYFKDWMELYKKNAIDEMTYKGYEQTLKYLKTYMPNVLISEITASSYQRALNKFAETHAKASTKGFHTRVRASIQPLIEEGRLQKDFTTRAVVKGLEHHHHHH
- protein production: not failed

Sequence: MGRAMGDSFTFIFNPAADKGRAADKTALIERSLAHFEVASLETTRFAGHAAEIARAAAGEGSTLIACGGDGTLNEVVNAVAGQPVKVGVLPVGSANDFLKTFNPSAKEHEVRIRGFAGATSRKVDLGKV
- protein production: failed

Sequence: MATGGLAIIQSMKHKLPPSERKLADYILAHPHKAIESTVNEISALANSSDAAVIRLCKSLGLKGFQDLKMRVAGDLAKPTFQGYRDIVPHEPLPSISEKTAGNAIQAIQDTSDLMDYKELERAVSLLLKAHTVHFIGLGASGIVAKDAQQKWLRIHKQATAFTDTHLVASLIANADKDDIVFAISFSGETQEIVELFAMAKEKGITTISLTQFSQTSVSALADVPLYTAHSNEALIRSAATSSRLAQLFIIDVLFLGMAAEQYETTTGYIDKTRAAIQSMRIK
- protein production: not failed

Sequence: MLYVVGIGPGNEEYFTKEAENALNSVDLIVCYTGYKKYIERFDTEIYVSGMTKEVERVEYALKEAENKNVALVSNGDATIYGLASLAYELNEKNLHNVTINVVSGL
- protein production: failed

Sequence: MEDTTFTKVFVGGLAWETHKVSLRNYFEQFGDIVEAVVITDKSSGRSKGYGFVTFCDPEAAQKACVDPAPVIDGRRANCNLAAFGVQRSKPSSPIHGTFRFLSFDTLLLKTLHQEYM
- protein production: failed

Sequence: MKRLFLPLLGFLSLVLMCCNDNKESGTDSYDPNKPVTIDYFTPDTGRVAEKVIIIGNNFGNDKSAVTVLFTDNMEKENKAAVVGVDNTTIYCMAPRQAEGFNKITVKVNDQTVVADETFKYSVSENVSTIAGDFVQADGAGKDGSLAEATFGQMFGVACIDEQSGIVGQAWNNNSVRYISIDEDAVITIQSGPVVGKVAVSNDKTLAYGATINGANTVYVYKKSQAWVPSRLSDISSGTDVWAVALNGDNQWLYYVTANGRLGRIEVDNPTHNEILFEHNDFSGGPFAYIAYSAFEDCFYVTTDKNKILKVWVKEDGTHAYEQINQNNTGTTDGFLADEAKFQYLRGLTIDEDGNIFVCQGDNSHVIRKIAYDENMEKRYVTTVLGTSTVHGTDDGSPDIALFNGPQDISYDGNGGYWIAMRYEPALRKYSIE
- protein production: failed

Sequence: MVRRLACKRAYRFRFYPTPEQEQLLRRTVGCCRKVYNLALEARSTAWTAERRSITYVQTSAMLTQWKQTAEYSYMNEVSCVPLQQALRHLQTAFSNFFKQTGDYPRFKAKSHGGSAEYTRSAFTWDAKRNELTLAKMRGPLPIRWSRTLPRKTEPSTVTVSLDAAGRWHVSILVEEAIRPLPARGDAVGIDLGVDSYAVTSDGETIANPRHYRKLAERLEREQRALSRKTKGGNNRRKAALKVARTYARITDMRRDFLHKLSTRIIRENQTVVLEDLNVRNMARRCAPKPDPDNPNHWLPNGQSAKNGLNGSIMDAGWSEFRRMLEYKAEWYGRKLITIDRYYPSTQICSHCGAKTGPKGMPGLTVRAWTCPDCGTTHDRDLNAAENILAAGLAVSVCKDGRTGTKVSH
- protein production: failed
